# According to patent US20140327158A1 (E3X BIO, published 2014):
# Target: T1, HA-UbVS (HA-tagged ubiquitin vinyl sulfone activity probe) (UniProt P0CG48 1-75, C-terminal vinyl sulfone (VS) electrophilic trap)
# T1 construct: Bought from Boston Biochem. Reacts covalently with the active site cysteine after specific recognition of Ub; also called Ub-vinyl sulfone
# Assay: HA-UbVS activity probe labeling, gel shift
# Excerpt: Reactions were terminated by the addition of SDS loading buffer.
binder,measurement,value
"Parkin RBR (residues 238-465) (enzyme, UniProt O60260 238-465, looked up, range 238-465; also called RBR domain of Parkin) CITCTDVRSPVLVFQCNSRHVICLDCFHLYCVTRLNDRQFVHDPQLGYSLPCVAGCPNSLIKELHHFRILGEEQYNRYQQYGAEECVLQMGGVLCPRPGCGAGLLPEPDQRKVTCEGGNGLGCGFAFCRECKEAYHEGECSAVFEASGTTTQAYRVDERAAEQARWEAASKETIKKTTKPCPRCHVPVEKNGGCMHMKCPQPQCRLEWCWNCGCEWNRVCMGDHWFDV",binding result,binds
